Results as given in PMC2603627.

Target: GST-tagged p63RhoGEF (UniProt Q86VW2)
Experiment: pull-down

Chain of UniProt Q86VW2 (Q86VW2 whole entry): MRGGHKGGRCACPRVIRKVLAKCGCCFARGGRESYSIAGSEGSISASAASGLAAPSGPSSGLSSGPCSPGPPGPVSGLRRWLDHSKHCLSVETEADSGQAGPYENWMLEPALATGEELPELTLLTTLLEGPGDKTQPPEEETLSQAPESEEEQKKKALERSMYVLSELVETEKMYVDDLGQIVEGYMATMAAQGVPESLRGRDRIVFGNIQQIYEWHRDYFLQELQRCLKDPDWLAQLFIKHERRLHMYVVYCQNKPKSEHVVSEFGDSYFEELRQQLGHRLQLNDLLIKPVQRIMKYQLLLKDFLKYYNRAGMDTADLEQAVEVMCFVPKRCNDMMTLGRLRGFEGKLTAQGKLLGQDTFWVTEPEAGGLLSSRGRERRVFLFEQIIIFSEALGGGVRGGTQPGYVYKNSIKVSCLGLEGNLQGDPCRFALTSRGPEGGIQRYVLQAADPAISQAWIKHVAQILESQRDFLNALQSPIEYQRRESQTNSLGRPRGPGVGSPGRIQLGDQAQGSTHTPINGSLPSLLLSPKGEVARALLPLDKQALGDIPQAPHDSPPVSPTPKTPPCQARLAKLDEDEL

Row | % associated MLK3/input MLK3 after overnight incubation [%] | amount in GST-p63RhoGEF complexes relative to FLAG-MLK3^KR [fold] | Substance
1 | 44 | – | FLAG-MLK3^KR (kinase-deficient, ATP-binding point mutant of MLK3) (from UniProt Q16584 1-847) (enzyme)
2 | – | 2 | FLAG-MLK3^KR/T277D,S281D (from UniProt Q16584 1-847) (enzyme)
